# Results from patent US20240026036A1 (AstraZeneca / MedImmune, published 2024).
# B1: MEDI-578 IgG1 TM YTE (antibody, V domains shown)
# VH: QVQLVQSGAEVKKPGSSVKVSCKASGGTFSTYGISWVRQAPGQGLEWMGGIIPIFDTGNSAQSFQGRVTITADESTSTAYMELSSLRSEDTAVYYCARSSRIYDLNPSLTAYYDMDVWGQGTMVTVSS
# VL: QSVLTQPPSVSAAPGQKVTISCSGSSSNIGNNYVSWYQQLPGTAPKLLIYDNNKRPSGIPDRFSGSKSGTSATLGITGLQTGDEADYYCGTWDSSLSAWVFGGGTKLTVL
# How the values were obtained:
# [1] = biological target: Recombinant human NGF (Sigma) (human, UniProt P01138 122-241); experiment: cell-based or functional assay
# [2] = biological target: Recombinant mouse NGF (R&D Systems) (mouse, UniProt P01139 122-241); experiment: cell-based or functional assay
# Recombinant mouse NGF (R&D Systems), sequence (P01139 122-241 limits assumed): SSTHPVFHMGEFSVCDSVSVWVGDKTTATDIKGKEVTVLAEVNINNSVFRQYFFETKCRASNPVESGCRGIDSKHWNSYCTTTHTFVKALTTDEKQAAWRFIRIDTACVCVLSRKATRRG
# Recombinant human NGF (Sigma), sequence (P01138 122-241 limits assumed): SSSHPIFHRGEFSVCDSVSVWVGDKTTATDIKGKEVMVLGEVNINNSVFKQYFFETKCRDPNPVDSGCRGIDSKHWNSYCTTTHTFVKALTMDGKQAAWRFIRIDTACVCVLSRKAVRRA
binder,measurement,setting,value
B1,IC50 (read off the curve),[1],~800 pM
same,IC50 (read off the curve),[2],~300 pM
